Results from patent US20190309288A1, “TARGETED MUTAGENESIS” (THE BOARD OF TRUSTEES OF THE LELAND STANFORD JUNIOR …, priority 2016, published 2019).
Where a chain is given by its changes, count along the chain named. In names and notes the source's numbering stands.

B1: R78N: PSMB5 variant, chr14: 23033640 C > A/T (protein, UniProt P28074 60-263, looked up, variant R78N)
Proteasome subunit beta type-5: TTTLAFKFRHGVIVAADSNATAGAYIASQTVKKVIEINPYLLGTMAGGAADCSFWERLLARQCRIYELRNKERISVAAASKLLANMVYQYKGMGLSMGTMICGWDKRGPGLYYVDSEGNRISGATFSVGSGSVYAYGVMDRGYSYDLEVEQAYDLARRAIYQATYRDAYSGGAVNLYHVREDGWIRVSSDNVADLHEKYSGSTP
B2: G242D: PSMB5 variant in exon 4, chr14: 23026156 C > T (protein, UniProt P28074 60-263, looked up, variant G242D)
Proteasome subunit beta type-5: B1 Proteasome subunit beta type-5 with N19R, G183D
B3: G82D: PSMB5 variant, chr14: 23033628 C > T (protein, UniProt P28074 60-263, looked up, variant G82D)
Proteasome subunit beta type-5: B1 Proteasome subunit beta type-5 with N19R, G23D
B4: L11L: PSMB5 synonymous mutation in exon 1, chr14: 23034851 G > A (protein, UniProt P28074 60-263, looked up)
Proteasome subunit beta type-5: B1 Proteasome subunit beta type-5 with N19R
modifications: synonymous mutation L11L
notes: PSMB5 synonymous mutation in exon 1, chr14: 23034851 G > A
B5: A108V: PSMB5 variant, chr14: 23033550 G > A; residue known to be involved in binding bortezomib (protein, UniProt P28074 60-263, looked up, variant A108V)
Proteasome subunit beta type-5: B1 Proteasome subunit beta type-5 with N19R, A49V

What was measured:
GFP = settings: cells expressing dCas9, MS2-AID*Δ, mCherry, sgRNA individually
Experimental: (§1) Lentiviral production as well as infection and culturing of K562 cells (ATCC) were performed as described (45). Parental K562 cell lines were generated by infecting dCas9-Blast (pGH125) followed by blasticidin selection (10 μg/mL, Gibco) for 7 days. Cells were subsequently infected with both GFP (pGH045) and mCherry (pGH044) expression vectors or with a wtGFP (pGH220) expression vector and sorted via FACS for fluorescence. These cell lines were used as the parental samples in the sequencing assays. For experiments using an integrated construct, cells were infected with MS2-AID (pGH153, 156, 183, and 335) expressing vectors followed by selection with hygromycin B (200 μg/mL, Life Technologies) for 7 days. All cell lines were maintained in a humidified incubator (37° C., 5% CO2), and checked regularly for mycoplasma contamination.
(§2) Nucleofection of K562 cells was performed as described (46). 1 million K562 cells were harvested for each electroporation. Cells were centrifuged at 300×g for 5 minutes and resuspended in 100 μL of nucleofection solution and mixed with plasmid DNA (5 μg MS2-AID expressing plasmid and 5 μg sgRNA expression vector) and loaded into a 2 mm cuvette (VWR). Electroporations were performed using the T-016 program on the Lonza Nucleofector 2b. After electroporation, cells were rescued in warm, supplemented RPMI media.

GFP and mCherry = test: Simultaneous mutation of two loci, flow cytometry; assay type: cell-based; settings: cells expressing dCas9, MS2-AID*Δ
Experimental: Scatter plots were generated in FlowJo.
Independent mutagenesis at multiple locations is typically not possible with traditional directed evolution experiments. However, the CRISPR/Cas9 system can target multiple loci using different sgRNAs (26, 27). Accordingly, experiments were conducted using two guides, one targeting GFP (sgGFP.10) and the other targeting mCherry (sgmCherry.1), both individually and in combination.

mCherry = mCherry fluorescence by flow cytometry as proxy for off-target mutation; assay type: cell-based; settings: cells expressing dCas9, MS2-AID*Δ, GFP, sgRNA individually
Experimental: as §1, §2

PSMB5 = test: Installation and validation of bortezomib resistant PSMB5 mutations, cell viability; assay type: cell-based; settings: mutation knocked into K562 cells at native PSMB5 locus; 20 nM bortezomib, 14 days; compared to controls
Experimental: sgRNAs were designed to target near the location of the installed SNP and 101-nt donor oligos were designed to be centered around the installed mutation. Oligonucleotides with proper overhangs were ordered from IDT and annealed before ligation into BbsI digested pGH020, a hu6 driven sgRNA expression vector. All plasmids were verified by Sanger sequencing.
K562 cells expressing Cas9 were electroporated with 5 μg of sgRNA expressing vector and 100 picomoles of donor oligo. Cells were grown for 6 days before 300,000 cells were placed under selection with 20 nM bortezomib for 14 days. The viability of the cells was measured by flow cytometry using a live cell gate (FSC/SSC). After selection, 750,000 cells were harvested and genomic DNA was extracted using the QiaAmp DNA Mini Kit (Qiagen). The PSMB5 exonic locus containing the mutation was PCR amplified, gel purified, and ligated into the pCR-Blunt vector using the Zero-Blunt cloning kit (Life Technologies). 8-15 colonies were Sanger sequenced for each sample.
Eight of these mutations were functionally validated by knocking each one into the genome separately at the native PSMB5 locus using active Cas9 cutting followed by HDR mediated by a DNA donor oligo (26, 27). To control for the effect of Cas9 cutting and HDR, a synonymous mutation not identified in our screen was knocked into each exon. Cas9 expressing K562 cells were electroporated with donor oligo and sgRNA and incubated for six days followed by subsequent selection with bortezomib. After 14 days, the viability of the cells was measured (FIG. 12). […] For the most resistant mutations, the PSMB5 locus was sequenced following bortezomib selection and the presence of the expected mutation was verified in the majority of non-frameshifted sequences (FIG. 13). Together, these experiments indicate that the technology provided herein selectively mutagenized an endogenously expressed protein target, identifying known and novel mutants that confer drug resistance.

Molecule	protection against bortezomib-induced cell death (viability) (PSMB5)	other results
sgGFP.10: sgRNA targeting GFP, sequence CGTCGCCGTCCAGCTCGACC (SEQ ID NO: 38) (chemistry not given here)	–	GFP low population (GFP): ~15%; cells with mutations at both loci (neither GFP nor mCherry) (GFP and mCherry): 0.26%
sgmCherry.1: sgRNA targeting mCherry, sequence GCGGTCTGGGTGCCCTCGTA (SEQ ID NO: 81) (listed as DNA, chemistry not fully specified)	–	mCherry low population (mCherry): ~15%; cells with mutations at both loci (neither GFP nor mCherry) (GFP and mCherry): 0.30%
B1	strongly protective	–
B2	strongly protective	–
B3	more modest protection	–
B4	more modest protection	–
B5	strongly protective	–
